# Reference: the supplement of paper PMC7125110
# ± gives the standard error. For some assays here: This sample holds only a part of the variants without activity.
# B1: glmS ribozyme (parent)
# chain: AUAAAAGCGCCAGAACUACAGAAAUGUAGUUGACGAGGAGGAGGUUUAUCGAAUUUUCGGCGGAUGCCUCCAAA
# Columns and labels:
# Conditions in all cases: with glucosamine-6-phosphate
# [1] = variants of: B1; test: kcat; higher = faster cleavage; RNA array
# Procedure, shortened: (§1)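 Glucosamine-6-phosphate (40 μM to 10 mM) in HEPES/KCl/Mg(OAc)2 buffer was flowed over sequenced MiSeq chips, and tiles were imaged over ~14 h. Barcoded ribozyme variants there had been transcribed in situ by E. coli RNA polymerase and were tracked through a hybridised Cy3 probe at 37 °C. One- or two-exponential decay fits to per-tile medians, normalised to baseline and to non-cleaving reference variants, gave kobs. kcat and KM came from weighted Michaelis–Menten fits across concentrations.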
# [2] = variants of: B1; test: KM; higher = weaker cofactor use; RNA array
# Procedure, shortened: as §1
# [3] = variants of: B1; test: self-cleavage kobs at 40 uM GlcN6P; higher = faster cleavage; RNA array
# Procedure, shortened: as §1
# [4] = variants of: B1; test: self-cleavage kobs at 160 uM GlcN6P; higher = faster cleavage; RNA array
# Procedure, shortened: as §1
# [5] = variants of: B1; test: self-cleavage kobs at 640 uM GlcN6P; higher = faster cleavage; RNA array
# Procedure, shortened: as §1
# [6] = variants of: B1; test: self-cleavage kobs at 2500 uM GlcN6P; higher = faster cleavage; RNA array
# Procedure, shortened: as §1
# [7] = variants of: B1; test: self-cleavage kobs at 10000 uM GlcN6P; higher = faster cleavage; RNA array
# Procedure, shortened: as §1
Variant,kcat [1] [s⁻¹],KM [2] [µM],self-cleavage kobs at 40 uM GlcN6P [3] [s⁻¹],self-cleavage kobs at 160 uM GlcN6P [4] [s⁻¹],self-cleavage kobs at 640 uM GlcN6P [5] [s⁻¹],self-cleavage kobs at 2500 uM GlcN6P [6] [s⁻¹],self-cleavage kobs at 10000 uM GlcN6P [7] [s⁻¹]
G29U U56G,0.00364 ± 0.0012,3840 ± 1700,6.41e-05 ± 1.1e-05,0.000127 ± 1.6e-05,0.000648 ± 9.8e-05,0.00118 ± 0.0002,0.00283 ± 0.00035
A1G G37U,1.48e-05 ± 2.9e-06,–,–,–,< 1e-05,–,–
G13C A14G,0.00129 ± 0.00022,3980 ± 950,–,4.16e-05 ± 8.8e-06,0.000189 ± 2.5e-05,0.000557 ± 7.3e-05,0.000855 ± 0.00013
U49G C68U,0.000145 ± 1.9e-05,862 ± 360,–,5.03e-05 ± 2.2e-05,6.17e-05 ± 1.2e-05,9.44e-05 ± 1.6e-05,0.000144 ± 1.8e-05
U46C C67G,0.000658 ± 5.5e-05,1560 ± 320,–,6.94e-05 ± 1.9e-05,0.000154 ± 5.6e-05,0.000431 ± 6.7e-05,0.000561 ± 6.7e-05
A15G G41C,0.000647 ± 4.6e-05,2170 ± 310,–,4.44e-05 ± 1.5e-05,0.000149 ± 2.7e-05,0.00032 ± 5.7e-05,0.000544 ± 6.2e-05
A6U G13C C70G,2.43e-05 ± 8.6e-06,–,–,–,–,–,–
A39U A48U,0.000306 ± 1.3e-05,1710 ± 170,–,–,8.14e-05 ± 9.1e-06,0.000201 ± 2.9e-05,0.000257 ± 2.2e-05
U31G A33U,0.000102 ± 8.8e-06,4090 ± 910,–,–,–,3.73e-05 ± 1.2e-05,7.23e-05 ± 1.2e-05
C10U G38U,< 1e-05,–,–,–,–,–,–
U47A U65G U69C,0.00209 ± 0.00057,2700 ± 1100,–,0.000128 ± 3.1e-05,–,0.00114 ± 0.00024,0.00154 ± 0.0005
G7U G38C,< 1e-05,–,< 1e-05,–,< 1e-05,–,< 1e-05
U45A A64C,0.000366 ± 4.6e-05,2520 ± 570,–,–,7.26e-05 ± 1.9e-05,0.000193 ± 3.8e-05,0.000277 ± 7.6e-05
A15G G44A,0.000572 ± 0.00011,2050 ± 620,–,2.81e-05 ± 1.2e-05,0.000152 ± 2.1e-05,0.000327 ± 5.5e-05,0.00044 ± 9.5e-05
A15G G44U,0.00046 ± 2.8e-05,1550 ± 270,–,3.52e-05 ± 1.5e-05,0.000151 ± 2.5e-05,0.000252 ± 6.3e-05,0.0004 ± 3.1e-05
G13U A39G,0.00264 ± 0.00039,2070 ± 520,5.19e-05 ± 1.1e-05,0.000147 ± 3.4e-05,0.000749 ± 0.00012,0.00177 ± 0.0003,0.00208 ± 0.00023
